From the DeepSol protein solubility set

Test: soluble on expression in E. coli; label from the status in PepcDB or PDB records

Sequence	soluble on expression in E. coli
MEMVKSRSKVAIIGAGFVGASAAFTMALRQTANELVLIDVFKEKAIGEAMDINHGLPFMGQMSLYAGDYSDVKDCDVIVVTAGANRKPGETRLDLAKKNVMIAKEVTQNIMKYYNHGVILVVSNPVDIITYMIQKWSGLPVGKVIGSGTVLDSIRFRYLLSEKLGVDVKNVHGYIIGEHGDSQLPLWSCTHIAGKNINEYIDDPKCNFTEEDKKKIAEDVKTAGATIIKNKGATYYGIAVSINTIVETLLKNQNTIRTVGTVINGMYGIEDVAISLPSIVNSEGVQEVLQFNLTPEEEEALRFSAEQVKKVLNEVKNL	soluble
MTQTAAPARYSPAELACALGLFPPTAEQAAVIAAPPGPLVVIAGAGAGKTETMAARVVWLVANGYAEPGQVLGLTFTRKAAGQLLRRVRSRLARLAGIGLGCGDPAACAPVVSTYHAFAGSLLRDYGLLLPLEPDTRLLSETELWQLAFDVVSGYDGVLCTDKSPAAVTSIVVRLWGQLGEHLVDTRALRDTHVELERLVHALPAGRYQRDRGPSQWLLRMLATQTQRAELVPLLDALGERMHAGKVMDFAMQMASAARLAATSPQVGQDLRRRYRVVLLDEYQDTGHAQRVVLSSLFGGGVDDGLALTAVGDPIQSIYGWRGASATNLPRFTTDFPLSDGTPAPVLELLTSWRNPPQALRVANGISAEARRRSVAVRALRPRPDAPPGAVRCALLPDVQAEREWIADHLRMRYQRAEADGVKPPTAAVLVRRNADAAAIADTLRARGIPAEVVGLAGLLSIPEVAEVVAMLRLVADPTAGAAAMRVLTGPRWRLGARDLAALWRRALTLSGESPSTASPESIAMAASADADNPCLADAISDPGSAEGYSVAGYGRIGALAGELSALRGRLGHSLPDLVAEVRRVLGVDCEVRASAPVSGGWAGPEHLDAFADVVAGYAERASARSSEASVAGLLAYLDVAEVVENGLPPAELTVACDRVQVLTVHAAKGLEWQVVAVAHLSRGVFPSTVSRSSWLTDPAELPPLLRGDRASAGAHGIPVLDTSAVADRKQLSDKISEHRRLLDRRRVDEERRLLYVAVTRAEDTLLVSGHHWGPTGTKPRGPSEFLCELKDIIDRSAAAGDPCGVVEQWASAPAGDERNPLCDNAIEAVWPADPLAARRGDVERGAALVAAAMSADLPGSTTDIDHPPRPGDAPWSTDVDALLAERAHAARGAPARGLPNHLSVSSLVELVGDPVGARQRLMCRLPKRPDPHAWLGDAFHAWVQQFYGAELLFDLGDLPGAADREVGDPEELAALQRAFTASSWAARTPAAVEVPFEMPIGDTVVRGRIDAVFVDPDGGATVVDWKTGKPPHGPAAMRQAAVQLAVYRLAWAALRGCPTSSVRTAFYYVRSGITVVPDELPAPGELAMLLTDCAGRRSDT	not soluble
MKTIYLYKAQIPEGKNKGDNAILITNQTVIDKLEKAAKEDGKSGTQVSTIASKSTTKENQENKIIGYTSTDNLREDNKNIFDIDDLNDEKYDRKIIVSATEEVLEQSNTLQSEEAVVLPAPAKYKASDSTKIAITQEPNLIGIHANEKENEETRKFVNW	soluble
GPGSMERIPLVVRRMVAAEQSCGFVHFFASLADASATPLVIEAKAFSSAAAGGAADDAAPTYQLVYDVMRSRNGHILFKKSYAERFTHSLALAAPVHALPAQLRSLVQSRLQAYIESPGVYLDGATERNVKLLSWIPATAASTTQEEAFPIPGIVMLVKSSYPSESMYREGAKLGLLFNAHRTNPNAKVAQMGLRDRANAYLAENDVYEVLLVHDAADAYLVPEGSRSNYLLQKSDGTWWCSAEEDILVGITLKTTYRVVQACGLGSVQHAKLTLKDILESKSLFILGTSPTIMPVQSVLLYRDTETRRLYEEAVRGLGTTAGTVQQVSDDKAELLFPVNVELAAALRAQYFAEAASS	not soluble
MGFFDRLKAGLAKTRERLLKAIPWGGNLEEVLEELEMALLAADVGLSATEEILQEVRASGRKDLKEAVKEKLVGMLEPDERRATLRKLGFNPQKPKPVEPKGRVVLVVGVNGVGKTTTIAKLGRYYQNLGKKVMFCAGDTFRAAGGTQLSEWGKRLSIPVIQGPEGTDPAALAYDAVQAMKARGYDLLFVDTAGRLHTKHNLMEELKKVKRAIAKADPEEPKEVWLVLDAVTGQNGLEQAKKFHEAVGLTGVIVTKLDGTAKGGVLIPIVRTLKVPIKFVGVGEGPDDLQPFDPEAFVEALLED	soluble
MSLGEEAAGEGGEAEKTITINVGLLVDETGPTSDVGKGYSLGAELAFKYFNEKGIYTKDGVRVNINYIKRDYAYNPTTAEEYYREFRDRYGVIAIIGWGTADTEKLSDQVDTDKITYISASYSAKLLVKPFNFYPAPDYSTQACSGLAFLASEFGQGKLALAYDSKVAYSRSPIGAIKKAAPSLGLQVVGDYDLPLRATEADAERIAREMLAADPDYVWCGNTISSCSLLGRAMAKVGLDAFLLTNVWGFDERSPQLIGEGGYGKVFGISPFIYPMFGQDVEGIQTIFEAARMNGVSEDQINLRVVQGFVNVWLLIKAIESVTSQDLQERGGEALKEALEANTFDLGGITADTIDYEPGFHLAYRKVFIIKLGENGELQLMGKFEAPSQVDCARYTIEEGHHHHHH	soluble
ETEQSVDLETVSVVGKSRPRATSGLLHTSTASDKIISGDTLRQKAVNLGDALDGVPGIHASQYGGGASAPVIRGQTGRRIKVLNHHGETGDMADFSPDHAIMVDTALSQQVEILR	not soluble
DEYLENLTDTPKHSKAYPIIKFEFTGRSVDAPLLSQASKKFGVELSILTSQIDYAGGVKFGYTIAEVEGDEDAITQTKVYLMENNVRVEVLGYVQ	not soluble
MGSDKIHHHHHHMKILIVDDEYRKVEEIFNVLADAGISCAGVKHETTAQAARILLRRQDYDLLIIDLHLPAAIGGKPDNEGGITFLDMIRLDEKVKLPASVLFITGREELIESAYTKVIERGAILCQYHSDSDEWKKILIGRAKYDSQRLARDEQVDVVIVTALRNPELDAVLNLPYQWIQKRIKDDPLTYHYGKIPRIDSNISVVAVSPNRKGMPSSAAVASKLALMFKPKILLMVGICAGIRDKCSLGDIIVADPTWDWGSGKHGLDSNGSPVFHAAPRQVPLNSALSQVASDLANDESVMNGIRKGWSEEVPGGKLKVHIGPMASGASVIADDRSARLIAIQQHRELIAIEMEAYAVMAAAEYTSIPNLTAMIIKSVCDFADAEKNDTWQKYASYTSAAFADQLFRNSNISV	not soluble
MSIKEQTLMTPYLQFDRNQWAALRDSVPMTLSEDEIARLKGINEDLSLEEVAEIYLPLSRLLNFYISSNLRRQAVLEQFLGTNGQRIPYIISIAGSVAVGKSTTARVLQALLSRWPEHRRVELITTDGFLHPNQVLKERGLMKKKGFPESYDMHRLVKFVSDLKSGVPNVTAPVYSHLIYDVIPDGDKTVVQPDILILEGLNVLQSGMDYPHDPHHVFVSDFVDFSIYVDAPEDLLQTWYINRFLKFREGAFTDPDSYFHNYAKLTKEEAIKTAMTLWKEINWLNLKQNILPTRERASLILTKSANHAVEEVRLRK	soluble
MGSDKIHHHHHHMKSKNLSPYIKYIELDRVRVPSFSRYPFHLPAVRNLDTLALHPKVTFLVGENGSGKSTILEAIAVAYGFNAEGGTKNFNFSSRRTHSDLSDYVKVVKGTRTPRNGFFLRAESFYNFASNLDDLDSEMAFGPSLIDSYGGRSLHEQSHGESFFAVFLNRFSGDGVYILDEPEAALSPSRQMSMLSRMHELVGEGAQFIIATHSPIIMAYPDALIYQIADDIEQVGYQETEHYRITRAFLNHPQKMLKLLLE	not soluble
MGLFDRIKRVVSANLNDLVNKAEDPEKMLEQAILEMQEDLVQLRQGVAQAIAAQKRTEKQYSDAQNEINKWQRNAQLALQKGDENLARQALERKKTYTETGTALKTSLDQQSTQVETLKRNLIQLESKISEAKTKKEMLKARITTAKAQEQLEGMVRGMNSSSAMAAFERMEEKVLMQEARAQSAAELAGADLETQFARLESGSDVDDELAALKASLAPAPEQNLLPPQQQEQQSTAPKSKEVVDSELDALRKQLDQL	not soluble
MIFKQNQNYWAVFDANKETLIVQTCSGLGLTAIDHLYPPHILPLDTDNETLGTTVLQALANSRTFVYDSPEDQDFFDTEKIRQRYEDWVAKLCGNLGYKTRRALFKNMMSVDIWLHNGCLKISPSRHVKLEAWNAIDADDVILSLDNSPEEIGAGLKLALSHCR	not soluble
MAHHHHHHMGGPREVTLKILDAIEAELKMSFKSIVEDRSLPYVSSSDTILVFGRSSLVEYILLSRSRDPQCKPKRVIVIDSAPLFEGRQLAEKLSSAGIDVTYGLITACCTLMPKCTRVFMGASAVLQNGDMFGRCGMALVAACAKLFRKPVLCFSESYKFVPEVWVGNLAQNTKLADMRPAAEVHGSDTGTHSPLVYPTPPTLSPPQLRASGGWGTPARGADFLTRSGGGGAVPFSSSASGYLYDLTPASYIDMIICEMGCLHTSAIVAAIKDREGRDTSQLLNLVRG	not soluble
MGSDKIHHHHHHMKELFEFNNVSFSYKDVKEQALVDLNFSIKKGSLTLITGSSGSGKSTLLKLMNGLIPRLYDGKLVGEILFENNSLQSLTQESISKNIGYVSQDPRGQFFTTNTTSELVFSMENFGFTKEHMDKRINELAELLDLSNILDKNIFSLSSGERQKISIGCSLSLNSKLIILDEPSSNLDFQATKKLADLLCDLKNKGFTIVIAEHRFYYLKELIDQVLFVKNRTVKTTTIQLLKTENNNALRKFDIFNSSIEVPYIEKASADVLKVEEITYENILKDINFDVKVGDVIGLVGKNGVGKTTLLRILMKIIRPTKGKIIENKKNLSSPFLVMQEMDYQFFTESVRSELALGNEIVSKDQQEKILKKMELYKMKDQLPFDLSGGEKQRLLVSIASLSKTNLFLFDEPTSGLDYINMERIADLIKDLKEKGAVVIATHDPEFLYKICNRIIYLKNGGIKKDIKLRVEDSTLIEQIFNDITK	not soluble
GPGSMVIKKDVPFKYTLHQGLCERDPVLSTPLIITAGVDGNELQYRLDMQVPSHSAIEGMEVTNVEFLFTSSKCNAGKSNQHLSKCSMLVYLYMQLLDGVGRPTSPPFPISCCNTHTGKGIFSCVKLPLQVNQQCRFYLVRRSCTDSASQSAMELKGVRFTSKLYLLYRSPLNSAKVRSQMDVLTGGDLKFTADTEVMTSTGAKRSREELERFGSENSDRKGKKAKRERETATTMDRASDDEPPNLIYAFVSGGDNES	soluble
MSNQRDYTLIIDKSGSMSIIEPKFQKSRWELVQESTLALARKCDQLDANGITVYTFSGKFRRYDNVNASKVEQIFQENEPVGGTNLTAVLQDALNNFLQRKKSNQAPTGETILVITDGEPNDRRSVFEIIIQASKCLDADEELAISFMQIGNDPSATKFLQALDDQLMEVGAKFDIVDTVTFDEMEDLTLTEVLLNAIEDLEHHHHHH	soluble
AHHHHHHGSHKLKVSVSFSYGKKEIVKNVEFEGKVGEIIAIIGPNGAGKSTLLKCIAGILKPRGIIEYNGIDLTKLKPKERAKIVGYVPQSSYPEFAFTVEEFVELGTYAGKGDVDEAIRRVGLWEKRKEFITNLSGGEYQLTLIARALAQGGDIMLLDEPTSHLDINHTREIMEILQELKKEKLIIAVFHDLNLAINYADEIIVLKNGETAWKGKSKEISEEVIEATYGIKPRIVREDGIVAVLP	soluble
MKRLWKKVGSGVKNANYLKKSVEEVAKIEKGETKVVPPKYPTEKSREVSEEIKKELAMKNESLVENMNKMYIKSTDPVERWTSTKDLPTRESEFLHRNDPIWEYGFYEPPVERIPKDKLMFKEALEYLRFRQELLSDSSSPAQKKQAAEFVADHVVTSRVNAETLDDIYEYFRPFERKDKQKVVNRHALAALQDHVQGNSDERRILDEAKDVGKKIRHISNNTKFLDEYQRLEDEEKDKVREAIAQLRQEEHERLNKRLGQLGEIEKTAQEAMKKAVEEKKEK	not soluble
MQSNTPQPNPAPFLKAGETVVLFDGVCKLCNGWAKFIIRHDRRQRIRLATVQSPEGQALLEWAGLPLDRFDTMAAVTGDRLYVRSEAFFVALSDFPAPWRWLRVLRFFPAVIRDWLYDRIALNRYRLFGRYDSCLLPTPDHERRFLKASPLEHHHHHH	soluble
